Assay results taken from publication PMC3257806 (Nature Cell Biology, 2011).

T1: GST-SHARPIN (Homo sapiens, UniProt Q9H0F6)
T1 sequence (Q9H0F6 1-387): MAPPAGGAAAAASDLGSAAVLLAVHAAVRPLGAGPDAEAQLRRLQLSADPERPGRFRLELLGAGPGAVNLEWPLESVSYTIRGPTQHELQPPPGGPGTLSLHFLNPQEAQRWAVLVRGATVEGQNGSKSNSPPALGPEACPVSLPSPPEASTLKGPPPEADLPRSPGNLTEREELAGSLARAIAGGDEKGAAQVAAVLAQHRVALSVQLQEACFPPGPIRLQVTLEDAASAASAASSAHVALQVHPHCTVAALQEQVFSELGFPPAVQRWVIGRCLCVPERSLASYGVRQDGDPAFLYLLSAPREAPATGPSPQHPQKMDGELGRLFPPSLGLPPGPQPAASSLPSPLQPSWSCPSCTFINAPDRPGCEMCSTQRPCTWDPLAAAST


Tests used:
GST-SHARPIN = molecular target: T1, GST-SHARPIN; type: binding; conditions: 2.5 μM biotinylated peptide on streptavidin-sepharose beads; Western blot
[1] = molecular target: EDANS-labelled wild-type α2-peptide (α2-wt); assay: fluorescence polarisation

| Molecule | interaction of recombinant GST-SHARPIN with biotinylated peptide (pull-down) (GST-SHARPIN) | Kd [1] [µM] |
| --- | --- | --- |
| β1-tail: peptide of the cytoplasmic domain of β1-integrin, biotinylated or unlabelled | did not interact |  |
| recombinant GST-SHARPIN (natural protein) MAPPAGGAAAAASDLGSAAVLLAVHAAVRPLGAGPDAEAQLRRLQLSADPERPGRFRLELLGAGPGAVNLEWPLESVSYTIRGPTQHELQPPPGGPGTLSLHFLNPQEAQRWAVLVRGATVEGQNGSKSNSPPALGPEACPVSLPSPPEASTLKGPPPEADLPRSPGNLTEREELAGSLARAIAGGDEKGAAQVAAVLAQHRVALSVQLQEACFPPGPIRLQVTLEDAASAASAASSAHVALQVHPHCTVAALQEQVFSELGFPPAVQRWVIGRCLCVPERSLASYGVRQDGDPAFLYLLSAPREAPATGPSPQHPQKMDGELGRLFPPSLGLPPGPQPAASSLPSPLQPSWSCPSCTFINAPDRPGCEMCSTQRPCTWDPLAAAST |  | 26 |
